Results: US20140315817A1

Target: FLAG-tagged, single-chain human FcRn (human) (UniProt P61769)
Experiment: ELISA at pH 5.5, HSA variant coated, FLAG-tagged single-chain FcRn titrated; column '~Kd at pH 5.5', rank 13; the sheet gives the mutation of HSA-18 as V424I

Chain of FLAG-tagged, single-chain human FcRn (human) (P61769 other isoform, or with tags, fused parts or gaps limits assumed): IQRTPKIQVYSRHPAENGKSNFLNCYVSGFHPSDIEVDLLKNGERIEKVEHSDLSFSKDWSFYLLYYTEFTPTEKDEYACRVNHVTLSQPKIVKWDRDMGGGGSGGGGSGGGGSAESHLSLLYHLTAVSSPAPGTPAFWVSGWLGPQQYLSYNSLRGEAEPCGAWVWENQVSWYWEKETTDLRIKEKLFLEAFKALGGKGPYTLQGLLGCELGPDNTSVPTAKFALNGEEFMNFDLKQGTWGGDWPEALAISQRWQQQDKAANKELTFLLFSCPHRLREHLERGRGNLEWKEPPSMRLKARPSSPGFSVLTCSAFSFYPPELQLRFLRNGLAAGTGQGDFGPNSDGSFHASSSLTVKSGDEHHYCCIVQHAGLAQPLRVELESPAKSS

Kd: > 100 nM
Substance: hsa-18: full length HSA V241I (from UniProt P02768 25-609)
